Measurements as given in patent publication US20260234655A1, “Nuclear Targeted DNA Delivery and Compositions for Use in Practicing the Same” (Seawolf Therapeutics, Inc., priority 2022, published 2026).
Entries after “also recorded” stand apart in the source; their conditions may differ.

How the values were obtained:
[1] = system: growth-arrested HepG2 cells; assay: Arrayed DTS screen in growth-arrested HepG2 cells; GFP intensity by live-cell imaging; format: cell-based; conditions: 24 h post-transfection
Excerpt: DNA construct design. Each DTS was constructed in pentameric repeat using a 15 bp spacer between each TFBS. The DTS was appended just 5′ to the promoter, effectively in a putative enhancer region. Various promoters were employed in these constructs, including CBh (a variant of the CAG promoter) and TTR. Several reporter genes were employed in these constructs, including enhanced Green Fluorescent Protein (eGFP). The polyadenylation (polyA) signal is a BGH-PolyA sequence. For pooled screening, unique molecular identifiers (UMIs; also known as barcodes) were used to distinguish between DNA constructs in a pool, and the UMIs were appended to the 3′UTR immediately downstream of the stop codon of eGFP, just preceding the BGH-PolyA sequence.
Cell culture. HepG2 cells were plated into a 384-well plate and grown for 48 hours to achieve confluency. Cell media was removed and replaced with culture media supplemented with Aphidicolin (1 uM) using EL406 automated plate washer and dispenser, then cells were transfected with DTS containing 17.5 ng plasmids using Lipofectamine 3000 without supplement. Expression of GFP was monitored using a Biotek Cytation 5 cell imaging reader over 24 hours to evaluate DTS activity. Total GFP per well was calculated and averaged over 4 well replicates.
pDNAs containing various DTSs (Table 12) were transfected individually into growth-arrested HepG2 cells. Cell growth was inhibited to prevent dissolution of the nuclear envelope. GFP expression was quantified over a period of 24 h post-transfection by measuring GFP intensity using quantitative live-cell imaging. Statistical analysis and hierarchical clustering methods were used to easily differentiate strong DTSs from weak DTSs in a heatmap (FIG. 5A). […] DTS.203: CREB1, PPARA, ONECUT1, HNF4A, PPARA. DTS.233: HNF1A, NR113, PPARA, HNF1A, PPARA. DTS.276: FOXA1, HNF4A, HNF1A, HNF4A, HNF1A.
For the arrayed screen, pDNAs containing various DTSs were transfected individually into growth-arrested HepG2 cells. For the pooled screen, pDNAs containing various DTSs were pooled together and transfected as a pool into growth-arrested HepG2 cells. Cell growth was inhibited to prevent dissolution of the nuclear envelope, which improves the accuracy of measuring DTS activity related to nuclear translocation. For the arrayed screen, GFP protein expression was quantified 24 h post-transfection by measuring GFP intensity using quantitative live-cell imaging. For the pooled screen, mRNA abundance for each DTS variant was determined using RNA-seq by deconvoluting the read counts for each UMI. A strong correlation between protein expression in the arrayed screen and mRNA expression in the pooled screen was observed (FIG. 6). […] Pooled screening can thus be used to quickly and reliably identify strong DTSs.

[2] = system: growth-arrested HepG2 cells; assay: Pooled DTS screen in growth-arrested HepG2 cells; mRNA abundance by RNA-seq of UMIs; format: cell-based
Excerpt: Library cloning. Pooled DTS libraries were designed as described above. To ensure the highest quality library production of oligos for cloning, oligo lengths were standardized to 300 bp. To accommodate this standardized length the core sequence of each DTS was embedded center-justified in a neutral fragment of random DNA sequence. The flanks of each oligo contained unique golden gate restriction enzyme digestion sites (Bsal) for cloning of double stranded DNA into screening vectors. […] The proper UMI/DTS barcode correlation (termed here the “library registry”) was determined via excision of the hTTR/eGFP fragments, re-ligation of the vector, PCR amplification of the corresponding proximal DTS and UMI regions, and sequencing on an Illumina Miseq (2×150 bp reads). […]
Quantification of mRNA abundance from pooled DTS screens. […] The PCR amplified cDNA was then library prepped (NEBNext library prep for Illumina) and sequenced on an Illumina Miseq (2×150 bp reads). Counts for each UMI were translated into the corresponding DTS using the UMI/Barcode registry and changes in abundance of each DTS were statistically analyzed using a custom R script. The log 2 fold change is calculated by comparing the RNA level in the pool vs. its expected abundance, which is derived from the abundance in the corresponding input DNA pool. […]

B1: DTS.203: combinatorial DTS: CREB1, PPARA, ONECUT1, HNF4A, PPARA binding sites (nucleic acid)
DNA: CTGACGTCAGAGATTACTACTGATACAAAACTAGGTCAAAGGTCAAGATTACTACTGATAGTCTGCTAAGTCAATAATCAGAATAGATTACTACTGATACGCCCCAGCACACATGATCAGAAGATTACTACTGATAAGGTCAAAGGTCA
**Q.** Which “GFP intensity / gene expression in arrayed screen compared to Spacer negative control” value [1] does the source give for B1 here?
**A.** performed equivalently or better than NFKB

B2: DTS.276: combinatorial DTS: FOXA1, HNF4A, HNF1A, HNF4A, HNF1A binding sites (nucleic acid)
DNA: TGTTTACTTTAGATTACTACTGATATCGAGCGCAGGTCAAAGGTCACCTGCAGATTACTACTGATAGGTTAATAATTAACAGATTACTACTGATATCGAGCGCTGGGCAAAGGTCACCTGCAGATTACTACTGATAAGTATGGTTAATGATCTACAG
**Q.** Which “GFP intensity / gene expression in arrayed screen compared to Spacer negative control” value [1] does the source give for B2 here?
**A.** performed equivalently or better than NFKB

B3: DTS.233: combinatorial DTS: HNF1A, NR1I3, PPARA, HNF1A, PPARA binding sites (nucleic acid)
DNA: GGTTAATAATTAACAGATTACTACTGATACCTCTTCTCTGTGGGTGACCAGCGTCCTAAGATTACTACTGATAAACTAGGTCAAAGGTCAAGATTACTACTGATAAGTATGGTTAATGATCTACAGAGATTACTACTGATACAAAACTAGGTCAAAGGTCA
**Q.** With B3 as the molecule, how does the “GFP intensity / gene expression in arrayed screen compared to Spacer negative control” value [1] read?
**A.** performed equivalently or better than NFKB; also recorded: robust increases

**Q.** What about the “mRNA abundance in pooled screen relative to Spacer negative control” value [2] of the same molecule?
**A.** robust increases
